Data on four molecules can be found in patent publication US20230124851A1 (INHIBRX LNC, published 2023).

In test [1] the target is T1, CD3 on the surface of human T cells (human, UniProt P07766 23-207).
T1 construct: whole, on cells; Part of the CD3/TCR complex on cells; also called CD3 epsilon
Kind of test: flow cytometry on isolated T cells, anti-human Fc secondary. The method, then:
(§1) Binding of exemplary multispecific constructs containing an antigen-binding domain directed against B7H3 were assessed for binding to B7H3 positive A375 tumor cells or primary T-cells. The constructs were generated containing antigen-binding domain(s) that were either sdAbs or a FABs, and that were positioned either only N-terminal to the Fc or both N-terminal to the Fc and C-terminal to the anti-CD3 binding domain (see FIGS. 30A and 30C and Table E5). Among the various formats of constructs tested included: sdAb-Fc-dsFV-sdAb (cx3072, cx5952) sdAb-Fc-FV (cx6079), sdAb-Fc-dsFV (cs6080, cx6081), MAB-FV (cx5067) and MAB-dsFV (cx6083, cx6084), where the FV represents the anti-CD3 binding domain composed of VH and VL domain pairs and “ds” notes disulfide stabilized via an engineered interdomain disulfide bond.
(§2) Binding was assessed as described above via flow cytometry using a fluorophore-conjugated anti-human Fc secondary antibody. cx3072 bound to A375 cells with high affinity (FIG. 31A) but not to isolated T-cells (FIG. 31B). […] The B7H3 -targeting sdAb containing constructs (cx5952, cx6079, cx6080, and cx6081) bound to B7H3 positive cells with similar affinities (depicted in FIG. 31E), with cx5952 displaying higher maximal binding. cx6079, cx6080 and cx6081 contain two identical B7H3-targeting sdAbs, whereas cx5952, and cx3072 contain two distinct B7H3-targeting sdAb that bind different epitopes. The MAB-FV, cx5067, contains two identical B7H3-targeting FAB domains.

Test [2] has as its target T2, human B7H3 (CD276) on the cell surface (human, UniProt Q5ZPR3 29-534).
T2 construct: B7H3 on A375 and other B7H3-positive or transfected cells
T2 sequence: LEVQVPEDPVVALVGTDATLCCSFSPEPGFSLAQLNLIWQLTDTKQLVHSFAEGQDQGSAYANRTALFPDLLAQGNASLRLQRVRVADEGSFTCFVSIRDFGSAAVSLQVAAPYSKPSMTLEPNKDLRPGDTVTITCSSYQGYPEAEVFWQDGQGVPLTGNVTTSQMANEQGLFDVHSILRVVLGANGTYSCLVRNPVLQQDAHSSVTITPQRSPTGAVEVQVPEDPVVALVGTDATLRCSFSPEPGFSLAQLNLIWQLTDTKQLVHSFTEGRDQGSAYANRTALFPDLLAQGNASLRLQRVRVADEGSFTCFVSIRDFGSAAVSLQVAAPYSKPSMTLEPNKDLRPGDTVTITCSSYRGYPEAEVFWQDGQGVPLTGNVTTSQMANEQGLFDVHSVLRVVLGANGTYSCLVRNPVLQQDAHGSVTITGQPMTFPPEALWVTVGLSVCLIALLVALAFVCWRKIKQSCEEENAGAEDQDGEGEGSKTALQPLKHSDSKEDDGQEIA
In words: flow cytometry on A375 cells (B7H3+), anti-human Fc secondary. The protocol: as §1, §2

T1 sequence (P07766 23-207): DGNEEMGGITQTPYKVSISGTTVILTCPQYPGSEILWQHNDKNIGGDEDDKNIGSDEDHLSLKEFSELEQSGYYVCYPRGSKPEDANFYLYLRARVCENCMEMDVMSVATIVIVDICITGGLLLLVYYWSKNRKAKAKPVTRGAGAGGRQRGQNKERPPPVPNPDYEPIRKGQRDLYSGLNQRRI

B1: cx5187 (bispecific antibody)
chain 1: EVQLVESGGGEVQPGGSLRLSCAASGFSFSSNVMMWVRQAPGKGLEWVSTIYSSGTGTFYAESVKGRFTISRDNAKNTLYLQMSSLRPEDTAVYYCATSGPVRGWGPRSQGTLVTVKPPGGGGDKTHTCPPCPAPGGPSVFLFPPKPKDTLMISRTPEVTCVVVDVSHEDPEVKFNWYVDGVEVHNAKTKPREEQYNSTYRVVSVLTVLHQDWLNGKEYKCKVSNKALPAPIEKTISKAKGQPREPQVYTLPPCRDELTKNQVSLWCLVKGFYPSDIAVEWESNGQPENNYKTTPPVLDSDGSFFLYSKLTVDKSRWQQGNVFSCSVMHEALHNHYTQKSLSLSPTGGGGGSGGGGGSGGGGGSEVQLVESGGGLVQPGGSLRLSCAASGFTFNTYAMNWVRQAPGKCLEWVARIRSKYNNYATYYADSVKGRFTISRDDAKNTLYLQMSSLRAEDTAVYYCVRHGNFGNSYVSWFAYWGQGTLVTVKPGGGGEVQLVESGGGEVQPGGSLRLSCAASGFTFSSYHMSWFRQAPGKQREPVATSHHGGTTNYAGSVKGRFTISRDNAKNTVYLQMNTLRAEDTAVYYCKADHGYQGRGYWGQGTLVTVKP
chain 2: DKTHTCPPCPAPGGPSVFLFPPKPKDTLMISRTPEVTCVVVDVSHEDPEVKFNWYVDGVEVHNAKTKPREEQYNSTYRVVSVLTVLHQDWLNGKEYKCKVSNKALPAPIEKTISKAKGQPREPQVCTLPPSRDELTKNQVSLSCAVKGFYPSDIAVEWESNGQPENNYKTTPPVLDSDGSFFLVSKLTVDKSRWQQGNVFSCSVMHEALHNRYTQKSLSLSPTGGGGGSGGGGGSGGGGGSQAVVTQEPSLTVSPGGTVTLTCGSSTGAVTTSNYANWVQQKPGQAFRGLIGGTNKRAPGVPARFSGSLLGGKAALTISGAQPEDEADYYCALWYSNHWVFGCGTKLEIKGGGGEVQLLESGGGEVQPGGSLRLSCAASGFSFSINAMGWYRQAPGKRREFVAAIESGRNTVYAESVKGRFTISRDNAKNTVYLQMSSLRAEDTAVYYCGLLKGNRVVSPSVAYWGQGTLVTVKP
Consider B1, for which the binding result in test [1] is recorded as “no binding”; in test [2], “binds”.

B2: cx5965 (bispecific antibody)
chain 1: EVQLVESGGGEVQPGGSLRLSCAASGFSFSSNVMMWVRQAPGKGLEWVSTIYSSGTGTFYAESVKGRFTISRDNAKNTLYLQMSSLRPEDTAVYYCATSGPVRGWGPRSQGTLVTVKPPGGGGDKTHTCPPCPAPGGPSVFLFPPKPKDTLMISRTPEVTCVVVDVSHEDPEVKFNWYVDGVEVHNAKTKPREEQYNSTYRVVSVLTVLHQDWLNGKEYKCKVSNKALPAPIEKTISKAKGQPREPQVYTLPPCRDELTKNQVSLWCLVKGFYPSDIAVEWESNGQPENNYKTTPPVLDSDGSFFLYSKLTVDKSRWQQGNVFSCSVMHEALHNHYTQKSLSLSPTGGGGGSGGGGGSGGGGGSEVQLVESGGGLVQPGGSLRLSCAASGFTFNTYAMNWVRQAPGKCLEWVARIRSKYNNYATYYADSVKGRFTISRDDAKNTLYLQMSSLRAEDTAVYYCVRHGNFGNSYVSWFAYWGQGTLVTVKP
chain 2: DKTHTCPPCPAPGGPSVFLFPPKPKDTLMISRTPEVTCVVVDVSHEDPEVKFNWYVDGVEVHNAKTKPREEQYNSTYRVVSVLTVLHQDWLNGKEYKCKVSNKALPAPIEKTISKAKGQPREPQVCTLPPSRDELTKNQVSLSCAVKGFYPSDIAVEWESNGQPENNYKTTPPVLDSDGSFFLVSKLTVDKSRWQQGNVFSCSVMHEALHNRYTQKSLSLSPTGGGGGSGGGGGSGGGGGSQAVVTQEPSLTVSPGGTVTLTCGSSTGAVTTSNYANWVQQKPGQAFRGLIGGTNKRAPGVPARFSGSLLGGKAALTISGAQPEDEADYYCALWYSNHWVFGCGTKLEIKGGGGEVQLLESGGGEVQPGGSLRLSCAASGFSFSINAMGWYRQAPGKRREFVAAIESGRNTVYAESVKGRFTISRDNAKNTVYLQMSSLRAEDTAVYYCGLLKGNRVVSPSVAYWGQGTLVTVKP
notes: first-named used
For B2, the binding result in test [1] is on record as “no binding”; in test [2], “binds”.

B3: cx5873 (bispecific antibody)
chain 1: DKTHTCPPCPAPGGPSVFLFPPKPKDTLMISRTPEVTCVVVDVSHEDPEVKFNWYVDGVEVHNAKTKPREEQYNSTYRVVSVLTVLHQDWLNGKEYKCKVSNKALPAPIEKTISKAKGQPREPQVYTLPPCRDELTKNQVSLWCLVKGFYPSDIAVEWESNGQPENNYKTTPPVLDSDGSFFLYSKLTVDKSRWQQGNVFSCSVMHEALHNHYTQKSLSLSPTGGGGGSGGGGGSGGGGGSEVQLVESGGGLVQPGGSLRLSCAASGFTFNTYAMNWVRQAPGKCLEWVARIRSKYNNYATYYADSVKGRFTISRDDAKNTLYLQMSSLRAEDTAVYYCVRHGNFGNSYVSWFAYWGQGTLVTVKPGGGGEVQLVESGGGEVQPGGSLRLSCAASGFTFSSYHMSWFRQAPGKQREPVATSHHGGTTNYAGSVKGRFTISRDNAKNTVYLQMNTLRAEDTAVYYCKADHGYQGRGYWGQGTLVTVKP
chain 2: DKTHTCPPCPAPGGPSVFLFPPKPKDTLMISRTPEVTCVVVDVSHEDPEVKFNWYVDGVEVHNAKTKPREEQYNSTYRVVSVLTVLHQDWLNGKEYKCKVSNKALPAPIEKTISKAKGQPREPQVCTLPPSRDELTKNQVSLSCAVKGFYPSDIAVEWESNGQPENNYKTTPPVLDSDGSFFLVSKLTVDKSRWQQGNVFSCSVMHEALHNRYTQKSLSLSPTGGGGGSGGGGGSGGGGGSQAVVTQEPSLTVSPGGTVTLTCGSSTGAVTTSNYANWVQQKPGQAFRGLIGGTNKRAPGVPARFSGSLLGGKAALTISGAQPEDEADYYCALWYSNHWVFGCGTKLEIKGGGGEVQLLESGGGEVQPGGSLRLSCAASGFSFSINAMGWYRQAPGKRREFVAAIESGRNTVYAESVKGRFTISRDNAKNTVYLQMSSLRAEDTAVYYCGLLKGNRVVSPSVAYWGQGTLVTVKP
notes: first-named used
As to B3, the binding result in test [1] is “no binding”; in test [2] it was “binds”.

B4: cx5823 (bispecific antibody)
chain 1: EVQLVESGGGEVQPGGSLRLSCAASGFSFSSNVMMWVRQAPGKGLEWVSTIYSSGTGTFYAESVKGRFTISRDNAKNTLYLQMSSLRPEDTAVYYCATSGPVRGWGPRSQGTLVTVKPPGGGGDKTHTCPPCPAPGGPSVFLFPPKPKDTLMISRTPEVTCVVVDVSHEDPEVKFNWYVDGVEVHNAKTKPREEQYNSTYRVVSVLTVLHQDWLNGKEYKCKVSNKALPAPIEKTISKAKGQPREPQVYTLPPCRDELTKNQVSLWCLVKGFYPSDIAVEWESNGQPENNYKTTPPVLDSDGSFFLYSKLTVDKSRWQQGNVFSCSVMHEALHNHYTQKSLSLSPGGGGGGSGGGGGSGGGGGSEVQLVESGGGLVQPGGSLRLSCAASGFTFNTYAMNWVRQAPGKCLEWVARIRSKYNNYATYYADSVKGRFTISRDDAKNTLYLQMSSLRAEDTAVYYCVRHGNFGNSYVSWFAYWGQGTLVTVKPGGGGEVQLVESGGGEVQPGGSLRLSCAASGFTFSSYHMSWFRQAPGKQRELVATSHHGGTTNYAGSVKGRFTISRDNAKNTVYLQMNTLRAEDTAVYYCKADHGYQGRGYWGQGTLVTVKP
chain 2: DKTHTCPPCPAPGGPSVFLFPPKPKDTLMISRTPEVTCVVVDVSHEDPEVKFNWYVDGVEVHNAKTKPREEQYNSTYRVVSVLTVLHQDWLNGKEYKCKVSNKALPAPIEKTISKAKGQPREPQVCTLPPSRDELTKNQVSLSCAVKGFYPSDIAVEWESNGQPENNYKTTPPVLDSDGSFFLVSKLTVDKSRWQQGNVFSCSVMHEALHNRYTQKSLSLSPGGGGGGSGGGGGSGGGGGSQAVVTQEPSLTVSPGGTVTLTCGSSTGAVTTSNYANWVQQKPGQAFRGLIGGTNKRAPGVPARFSGSLLGGKAALTISGAQPEDEADYYCALWYSNHWVFGCGTKLEIKGGGGEVQLLESGGGEVQPGGSLRLSCAASGFSFSINAMGWYRQAPGKRREFVAAIESGRNTVYAESVKGRFTISRDNAKNTVYLQMSSLRAEDTAVYYCGLLKGNRVVSPSVAYWGQGTLVTVKP
With B4, the values for the binding result in test [1] and in test [2] were “no binding” and “binds”, respectively.
